We go through one molecule from US20200347127A1 (CRESCENDO BIOLOGICS, published 2020).

Where two headings read alike, the source gives them in different places.

Assay [1] concerns the target T1, recombinant human IL-17A (human, UniProt Q16552 24-155). Nature of the assay: cell-based or functional assay.
Assay [2] concerns the target T1, recombinant human IL-17A. Nature of the assay: cell-based or functional assay. The source holds these as a separate data set.
The target in assay [3] is T1, recombinant human IL-17A. Nature of the assay: competition ELISA, IL-17A binding to coated IL-17RA-Fc. Background: An ELISA detects its analyte on a solid surface through an enzyme-linked reagent.
Protocol: (§1) Following washing of excess coating antigen, as described above, the wells of the plate were incubated with 3% skimmed milk powder/PBS to block non-specific protein interactions. […] The mixture was then transferred to the assay plate and incubated for 1 hour at room temperature.
(§2) Where appropriate, curve fitting in PRISM was used to determine the EC₅₀ of inhibiting VH.
Assay [4] concerns the target T1, recombinant human IL-17A. Nature of the assay: competition ELISA, IL-17A binding to coated IL-17RA-Fc (FIG. 9B); FIG. 9B.
Protocol: as §1, §2
Assay [5] concerns the target T1, recombinant human IL-17A. Kind of assay: SPR (BIAcore T200), IL-17A coupled to CM5 chip, single-cycle kinetics.
Protocol: (§3) VH binding kinetics were then determined from the (blank subtracted) sensorgram traces using 1:1 binding models and BIAevaluation software.
In assay [6] the target is T1, recombinant human IL-17A. Described as above. This is another data set of the same source.
Protocol: as §3
Assay [7] deals with T2, IL17E.
T2 construct: also called IL-25
T2 chain: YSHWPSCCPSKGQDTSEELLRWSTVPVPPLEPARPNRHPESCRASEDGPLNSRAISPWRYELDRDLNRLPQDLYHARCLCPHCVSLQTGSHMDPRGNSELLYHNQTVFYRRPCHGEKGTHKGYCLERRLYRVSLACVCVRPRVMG
Kind of assay: specificity ELISA on coated antigen, VH concentration not given.

The target of assay [8] is T3, IL-17C (UniProt Q9P0M4 19-197, limits assumed).
T3 sequence (looked up): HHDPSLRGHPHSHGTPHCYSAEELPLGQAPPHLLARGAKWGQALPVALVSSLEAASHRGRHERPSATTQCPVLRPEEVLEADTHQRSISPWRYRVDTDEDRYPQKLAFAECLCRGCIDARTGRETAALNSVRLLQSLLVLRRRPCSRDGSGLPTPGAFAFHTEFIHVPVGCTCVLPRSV
The assay is described as above.

Assay [9] has as its target T4, IL-17F (UniProt Q96PD4 31-163, limits assumed).
T4 sequence (looked up): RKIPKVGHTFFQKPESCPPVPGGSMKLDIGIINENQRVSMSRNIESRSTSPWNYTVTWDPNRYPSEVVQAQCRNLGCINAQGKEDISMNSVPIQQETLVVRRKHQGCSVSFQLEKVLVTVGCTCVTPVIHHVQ
The description is as above.

T1 sequence (Q16552 24-155): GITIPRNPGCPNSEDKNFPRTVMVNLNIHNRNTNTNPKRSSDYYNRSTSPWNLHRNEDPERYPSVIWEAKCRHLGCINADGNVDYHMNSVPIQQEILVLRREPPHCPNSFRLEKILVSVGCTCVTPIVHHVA

B1: VH 1.1.1 (clone 1.1 expressed from phagemid vector: with linker residues and His tag) (VHH)
VHH: EVQLVESGGGLVQPGGSLRLSCAASGFTFSSYSMYWVRQAPGKGLEWVANIKQDGSEKYYVDSVKGRFTISRDNAKNSLFLQMNSLRAEDTAVYYCAKGEILPLHFDYWGQGTLVTVSS
notes: Human single VH domain; also called Family 1 (clone 1.1)
For the molecule B1, the “Cell assay IC50 (nM), IL-17A-induced IL6 release from HT1080” value in assay [1] and in assay [2] was 13 nM each time. In addition, the results for the IC50 in assay [3] and in assay [4] were 0.053 µM and 0.029 µM, respectively. Further, the Kd in assay [5] and in assay [6] was 0.005 µM throughout. Further, the koff in [5] and in assay [6] was 0.00149 s⁻¹ throughout. Further, the kon in assay [5] and in assay [6] was 296000 M⁻¹ s⁻¹ in each case. Further, the binding result in assay [7], in assay [8] and in assay [9] was “no binding” throughout.
